Data reported in PMC10624902, “Structure of a membrane-bound menaquinol:organohalide oxidoreductase” (Nature Communications, 2023).

Legend:
[1] = biological target: T1, PceA2B2 complex (menaquinol:organohalide oxidoreductase, MOOR; DhPceA / DhPceB) (Desulfitobacterium hafniense, UniProt Q8GJ30+Q8GJ31); test: cryo-EM structure, […] A; type: binding; details: PceA active site / channel, 5.3 A from cobalt; cells grown with PCE
T1 construct: gene pceA; native complex from D. hafniense membranes, DDM-solubilised, SEC into LMNG; no tag; PceA C-terminal domain S486-Q551 present; PceA exported via Tat
T1 sequence (Q8GJ31 40-551): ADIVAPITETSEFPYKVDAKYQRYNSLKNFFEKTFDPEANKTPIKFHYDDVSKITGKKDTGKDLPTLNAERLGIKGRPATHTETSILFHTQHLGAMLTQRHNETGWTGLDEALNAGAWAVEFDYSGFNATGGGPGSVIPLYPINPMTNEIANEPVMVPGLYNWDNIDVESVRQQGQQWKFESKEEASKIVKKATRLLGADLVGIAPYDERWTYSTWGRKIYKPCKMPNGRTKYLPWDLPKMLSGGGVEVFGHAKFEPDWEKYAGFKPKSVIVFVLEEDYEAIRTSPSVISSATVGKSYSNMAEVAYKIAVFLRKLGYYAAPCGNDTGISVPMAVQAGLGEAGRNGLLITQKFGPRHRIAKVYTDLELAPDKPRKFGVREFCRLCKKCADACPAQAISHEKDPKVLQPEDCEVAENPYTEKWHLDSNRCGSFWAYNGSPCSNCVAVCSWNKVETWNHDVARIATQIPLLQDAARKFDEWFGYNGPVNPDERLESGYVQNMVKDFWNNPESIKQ
T1 sequence (Q8GJ30 1-105): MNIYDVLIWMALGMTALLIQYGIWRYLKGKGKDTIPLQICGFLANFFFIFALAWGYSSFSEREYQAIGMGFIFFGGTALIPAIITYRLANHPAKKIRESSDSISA

[2] = biological target: the molecule itself; test: native gel or EMSA; Clear-Native PAGE (5-15% gradient, Bis-Tris) of DDM-solubilised membrane extract and soluble fraction, anaerobic; Coomassie and in-gel PCE dehalogenase activity staining; the ~180 kDa band cut out, run on SDS-PAGE as second dimension and analysed by LC-MS/MS
[3] = biological target: the molecule itself; test: cryo-EM structure; native PceA2B2 complex purified from the membrane extract by SEC in 25 mM HEPES-NaOH pH 7.5, 150 mM NaCl, 0.005% LMNG; single-particle analysis, C2 symmetry, 2.83 Å

Q: For `Cl/C=C\Cl` [cis-1,2-dichloroethene], which “cryo-EM structure, 2.83 A” value [1] is on record?
A: density for a dichloroethene (DCE) molecule, the final product of PCE dechlorination

B1: PceA, catalytic subunit of the tetrachloroethene (PCE) reductive dehalogenase from Desulfitobacterium hafniense strain TCE1 (enzyme, UniProt Q8GJ31 40-551, looked up)
chain: T1 sequence (Q8GJ31 40-551)
notes: PceA, catalytic subunit of the PCE reductive dehalogenase, Desulfitobacterium hafniense strain TCE1 (DSM 12704), locus tag DeshaDRAFT_2412; C-terminal domain printed as S486-Q551; Native protein with a cobalamin and two [4Fe-4S] clusters; a menaquinone lies at the interface with PceB; the modelled residues are in PDB 8Q4H; also called DhPceA; RdhA; source: endogenous, D. hafniense strain TCE1: …
Q: For B1, which “stoichiometry N” value [2] is on record?
A: 2

B2: PceB, integral membrane anchor subunit of the PCE reductive dehalogenase from Desulfitobacterium hafniense strain TCE1 (natural protein, UniProt Q8GJ30 1-105, looked up)
chain: T1 sequence (Q8GJ30 1-105)
notes: PceB, small integral membrane subunit with three transmembrane helices, encoded in the pceABCT operon of Desulfitobacterium hafniense strain TCE1; also called DhPceB; RdhB; source: endogenous, D. hafniense strain TCE1: DDM-solubilised membrane extract; purified as PceA2B2 complex by size-exclusion chromatography (Superose 6 Increase) for cryo-EM
Q: Does B2 bind [3]?
A: binds
